Test results published in IntAct's records for PubMed 16595635.

How the values were obtained:
tnfl6_human FASLG [1] = biological target: tnfl6_human FASLG (UniProt P48023)
tnfl6_human FASLG [2] = biological target: tnfl6_human FASLG (UniProt P48023); remark: listed apart in the source
tnfl6_human FASLG [3] = biological target: tnfl6_human FASLG (UniProt P48023); remark: listed apart in the source

UniProt P48023, sequence (P48023 whole entry): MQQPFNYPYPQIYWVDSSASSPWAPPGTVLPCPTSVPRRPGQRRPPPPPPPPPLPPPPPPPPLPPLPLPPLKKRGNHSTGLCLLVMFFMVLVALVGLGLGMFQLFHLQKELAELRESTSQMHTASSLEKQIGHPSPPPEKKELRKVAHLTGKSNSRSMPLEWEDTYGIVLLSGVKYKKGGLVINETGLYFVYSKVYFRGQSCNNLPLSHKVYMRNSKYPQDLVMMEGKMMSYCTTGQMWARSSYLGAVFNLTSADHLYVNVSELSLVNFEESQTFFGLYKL

Row | effect of a mutation on the interaction (tnfl6_human FASLG [1]) | effect of a mutation on the interaction (tnfl6_human FASLG [2]) | effect of a mutation on the interaction (tnfl6_human FASLG [3]) | Substance
1 | disrupting interaction strength | disrupting interaction strength |  | SH2/SH3 adapter protein NCK1 (Homo sapiens) (from UniProt P16333-1) W38K;W143K;W229K
2 |  |  | disrupting interaction strength | SH2/SH3 adapter protein NCK1 (Homo sapiens) (from UniProt P16333-1) W143K
3 |  |  | disrupting interaction strength | SH2/SH3 adapter protein NCK1 (Homo sapiens) (from UniProt P16333-1) W229K
